From paper PMC6753213

Legend:
[1] = biological target: AMC011 SOSIP-I53-50A (HIV-1 (AMC011, Clade B)); assay: not stated; purified fusion proteins; result shown in Supplementary Fig. 2d, e (not shown)
[2] = biological target: BG505 SOSIP-I53-50A.1NT1 (HIV-1 (BG505)) (UniProt Q2N0S6); assay: SEC; SOSIP fusion protein after PGT145 purification, Superose 6 Increase, Assembly Buffer II (25 mM Tris, 500 mM NaCl, 5% glycerol pH 8.2); trimer and aggregate peaks
[3] = biological target: BG505 SOSIP-I53-50A.1NT1 (HIV-1 (BG505)) (UniProt Q2N0S6); assay: negative-stain EM
[4] = biological target: ConM SOSIP-I53-50A (HIV-1 (consensus of Group M)); assay: not stated; purified fusion proteins; result shown in Supplementary Fig. 2d, e (not shown)
[5] = biological target: ZM197M SOSIP-I53-50A (HIV-1 (ZM197M, Clade C)); assay: as above

## AMC011 SOSIP-I53-50A (designed binder)
[1]
  stoichiometry N: 3

## BG505 SOSIP-I53-50A.1NT1 (from UniProt Q2N0S6) (designed binder)
[2]
  stoichiometry N: 3
[3]
  stoichiometry N: 3

## ConM SOSIP-I53-50A (designed binder)
[4]
  stoichiometry N: 3

## ZM197M SOSIP-I53-50A (designed binder)
[5]
  stoichiometry N: 3
